Paper PMC11988184

B1: c-Myc tagged MIRO1 (mitochondrial rho GTPase 1), wild type [not stated] / MCU (mitochondrial Ca2+ uniporter), endogenous in HEK cells [human (endogenous in HEK)] (parent)
chain 1: MKKDVRILLVGEPRVGKTSLIMSLVSEEFPEEVPPRAEEITIPADVTPERVPTHIVDYSEAEQSDEQLHQEISQANVICIVYAVNNKHSIDKVTSRWIPLINERTDKDSRLPLILVGNKSDLVEYSSMETILPIMNQYTEIETCVECSAKNLKNISELFYYAQKAVLHPTGPLYCPEEKEMKPACIKALTRIFKISDQDNDGTLNDAELNFFQRICFNTPLAPQALEDVKNVVRKHISDGVADSGLTLKGFLFLHTLFIQRGRHETTWTVLRRFGYDDDLDLTPEYLFPLLKIPPDCTTELNHHAYLFLQSTFDKHDLDRDCALSPDELKDLFKVFPYIPWGPDVNNTVCTNERGWITYQGFLSQWTLTTYLDVQRCLEYLGYLGYSILTEQESQASAVTVTRDKKIDLQKKQTQRNVFRCNVIGVKNCGKSGVLQALLGRNLMRQKKIREDHKSYYAINTVYVYGQEKYLLLHDISESEFLTEAEIICDVVCLVYDVSNPKSFEYCARIFKQHFMDSRIPCLIVAAKSDLHEVKQEYSISPTDFCRKHKMPPPQAFTCNTADAPSKDIFVKLTTMAMYPHVTQADLKSSTFWLRASFGATVFAVLGFAMYKALLKQR
chain 2: VHQRIASWQNLGAVYCSTVVPSDDVTVVYQNGLPVISVRLPSRRERCQFTLKPISDSVGVFLRQLQEEDRGIDRVAIYSPDGVRVAASTGIDLLLLDDFKLVINDLTYHVRPPKRDLLSHENAATLNDVKTLVQQLYTTLCIEQHQLNKERELIERLEDLKEQLAPLEKVRIEISRKAEKRTTLVLWGGLAYMATQFGILARLTWWEYSWDIMEPVTYFITYGSAMAMYAYFVMTRQEYVYPEARDRQYLLFFHKGAKKSRFDLEKYNQLKDAIAQAEMDLKRLRDPLQVHLPLRQIGEKD

Variants of: B1
Experiment: co-immunoprecipitation (anti-Myc IP, immunoblot quantification)
Conditions: with MCU (mitochondrial Ca2+ uniporter), c-Myc-tagged MIRO1 constructs expressed in HEK cells for 24 h, n = 6 independent experiments, parent: 0.26, read off a plot

| Variant | response |
| --- | --- |
| chain 1 S432N | 0.36 AU |
| chain 1 E208K E328K | 0.065 AU |
